Here are results for five molecules from patent publication US20200102347A1 (AUCTUS BIOLOGIES, published 2020).

No end group written: not given here. *: point of attachment. RhodamineB = CCN(CC)c1ccc2c(-c3ccccc3C(=O)*)c3ccc(=[N+](CC)CC)cc-3oc2c1

Assay [1] concerns the target T1, NativeRPtag(large)_with_Tags_and_Cys (Thermoanaerobacter tengcongensis).
T1 construct: Unlabeled in anisotropy assays; coupled through the engineered N-terminal Cys to SulfoLink agarose or maleimide plates in column, pull-down and ELISA assays
T1 chain: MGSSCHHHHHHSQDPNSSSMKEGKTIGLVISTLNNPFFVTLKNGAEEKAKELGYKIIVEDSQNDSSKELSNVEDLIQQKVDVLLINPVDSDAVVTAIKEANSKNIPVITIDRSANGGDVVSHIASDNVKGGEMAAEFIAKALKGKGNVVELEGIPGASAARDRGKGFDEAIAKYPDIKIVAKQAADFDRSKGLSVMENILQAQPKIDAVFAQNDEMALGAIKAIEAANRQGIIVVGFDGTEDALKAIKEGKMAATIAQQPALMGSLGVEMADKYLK
As to the kind of experiment: column binding; non-complementary tagRFP fusion applied to immobilized RPtag (large), washed, photographed.

In assay [2] the target is T2, NativeRPtag small for immobilization (Thermoanaerobacter tengcongensis, C-terminal Cys (GGC) coupled to SulfoLink agarose resin).
T2 construct: also called immobilized RPtag (small)
T2 peptide: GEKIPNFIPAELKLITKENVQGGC
As to the kind of experiment: column binding; 25 mL of 1 µM tagRFP fusion applied to immobilized RPtag (small), washed with 10 mL TNE buffer, photographed.
Protocol: (§1) After purification of the tagged proteins, each was applied to its complementary column to evaluate binding. […] Briefly, columns were first equilibrated in 20 mM Tris pH 8.0, 150 mM NaCl, 1 mM EDTA (TNE buffer), then 25 mL of 1 μM tagged protein in TNE buffer was applied to the column at a flow rate of 1 ml/min, then washed with 10 mL of TNE buffer. Columns were cleaned with 10 mL 100 mM Glycine pH 1.5 between uses.
(§2) Briefly, columns were equilibrated in 20 mM Tris pH 8.0, 150 mM NaCl, 1 mM EDTA (TEN buffer), then 25 mL of 1 μM tagged protein in TEN buffer was applied to the column at a flow rate of 1 ml/min. Thereafter, the column was washed with 10 mL of TEN buffer, and the results recorded by photograph (FIG. 8). Columns were cleaned with 10 mL 100 mM Glycine pH 1.5 between uses.

Assay [3] addresses T3, NativeRPtag(large)_with_Tags_and_Cys (Thermoanaerobacter tengcongensis).
T3 chain: T1 chain
As to the kind of experiment: fluorescence anisotropy; KCl (3M).

Assay [4] addresses T3, NativeRPtag(large)_with_Tags_and_Cys …. As to the kind of experiment: fluorescence anisotropy; 50 mM Tris pH 8.0, 0.005% Tween 20, no additive (Table 2).
The target is the same in assay [5]. As to the kind of experiment: fluorescence anisotropy; MnSO4 (10 mM).
Assay [6] has the same target. Nature of the assay: fluorescence anisotropy; TritonX-100 (2%).
The target is the same in assay [7]. Nature of the assay: fluorescence anisotropy; BME (10%).
For assay [8] the target is unchanged. Nature of the assay: fluorescence anisotropy; MgCl2 (3M).
For assay [9] the target is unchanged. Nature of the assay: fluorescence anisotropy; EtOH (20%); EtOH (20%).
The target is the same in assay [10]. As to the kind of experiment: fluorescence anisotropy; NaCl (3M).
The target is the same in assay [11]. Nature of the assay: fluorescence anisotropy; sorbitol (3M).
The target is the same in assay [12]. As to the kind of experiment: fluorescence anisotropy; acetone (20%).
Assay [13] has the same target. As to the kind of experiment: fluorescence anisotropy; No Additive; No Additive; 100 mM Tris pH 8.0, 0.005% Tween 20 (Table 3).
Assay [14] shares this target. As to the kind of experiment: fluorescence anisotropy; ribose (3M).
For assay [15] the target is unchanged. Nature of the assay: fluorescence anisotropy; glycerol (20%).
Assay [16] shares this target. As to the kind of experiment: fluorescence anisotropy; PG (50%).
The target is the same in assay [17]. As to the kind of experiment: fluorescence anisotropy; DMSO (20%); DMSO (20%).
Assay [18] has the same target. Nature of the assay: fluorescence anisotropy, buffer additive screen.
For assay [19] the target is unchanged. As to the kind of experiment: fluorescence anisotropy; NiCl2 (100 mM).
Assay [20] has the same target. As to the kind of experiment: fluorescence anisotropy; Tween20 (2%).
Assay [21] shares this target. Nature of the assay: fluorescence anisotropy; NH4SO4 (3M).
Assay [22] shares this target. Nature of the assay: fluorescence anisotropy; DTT (100 mM).
The target is the same in assay [23]. As to the kind of experiment: pull-down with RPtag(large) resin.
For assay [24] the target is unchanged. As to the kind of experiment: fluorescence anisotropy, competitor chase; 50 mM Tris pH 8.0, 0.005% Tween 20, no additive (Table 2).
Assay [25] has the same target. Nature of the assay: fluorescence anisotropy; MeOH (20%); MeOH (20%).
Another assay concerns the target T4, Bovine Serum Albumin (bovine, UniProt P02769 25-607).
T4 construct: also called BSA
Nature of the assay: fluorescence anisotropy; 50 nM N-terminal Rhodamine B RP-Tag Small, BSA titrated.

The target of assay [26] is T1, NativeRPtag(large)_with_Tags_and_Cys. Nature of the assay: column binding; 25 mL of 1 µM tagRFP fusion applied to immobilized RPtag (large), washed with 10 mL TNE buffer, photographed.
Protocol: as §1, §2
In assay [27] the target is T2, NativeRPtag small for immobilization. As to the kind of experiment: column binding; non-complementary tagRFP fusion applied to immobilized RPtag (small), washed, photographed.

T4 sequence (P02769 25-607 limits assumed): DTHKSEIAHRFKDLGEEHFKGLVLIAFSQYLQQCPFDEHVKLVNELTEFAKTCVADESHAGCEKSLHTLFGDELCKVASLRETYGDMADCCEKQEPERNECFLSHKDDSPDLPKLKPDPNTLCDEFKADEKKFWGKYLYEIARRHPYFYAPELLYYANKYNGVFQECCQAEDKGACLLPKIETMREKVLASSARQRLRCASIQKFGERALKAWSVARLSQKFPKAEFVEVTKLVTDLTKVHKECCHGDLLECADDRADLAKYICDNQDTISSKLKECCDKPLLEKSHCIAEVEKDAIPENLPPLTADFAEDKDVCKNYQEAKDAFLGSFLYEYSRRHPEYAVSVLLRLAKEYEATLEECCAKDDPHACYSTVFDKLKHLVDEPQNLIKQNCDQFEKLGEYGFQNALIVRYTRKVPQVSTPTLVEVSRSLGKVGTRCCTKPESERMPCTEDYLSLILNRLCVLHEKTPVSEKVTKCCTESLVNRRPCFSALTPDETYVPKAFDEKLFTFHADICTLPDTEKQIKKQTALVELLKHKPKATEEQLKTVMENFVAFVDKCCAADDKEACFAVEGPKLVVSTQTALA
Protocol for Bovine Serum Albumin: Anisotropy was then measured, and a Kd calculated by fitting the data to the equation f=y₀+(yₘₐₓ−y₀)*(Pₜₒₜ+x+Kd−sqrt((Pₜₒₜ+x+Kd)\hat{ }2-4*Pₜₒₜ*x))/(2*Pₜₒₜ), where y₀ is the baseline anisotropy, yₘₐₓ is the maximum anisotropy, Pₜₒₜ is the fixed concentration of labeled peptide used, x is the variable concentration of protein used, and Kd is the measured Kd.

B1: Cterminally_tagged_NativeRPtag(large)_tagRFP (other)
chain: MGSSHHHHHHHHGSMVSKGEELIKENMHMKLYMEGTVNNHHFKCTSEGEGKPYEGTQTMRIKVVEGGPLPFAFDILATSFMYGSRTFINHTQGIPDFFKQSFPEGFTWERVTTYEDGGVLTATQDTSLQDGCLIYNVKIRGVNFPSNGPVMQKKTLGWEANTEMLYPADGGLEGRSDMALKLVGGGHLICNFKTTYRSKKPAKNLKMPGVYYVDHRLERIKEADKETYVEQHEVAVARYCDLPSKLGHKLNGSSGENLYFQGGSSQDPNSSSMKEGKTIGLVISTLNNPFFVTLKNGAEEKAKELGYKIIVEDSQNDSSKELSNVEDLIQQKVDVLLINPVDSDAVVTAIKEANSKNIPVITIDRSANGGDVVSHIASDNVKGGEMAAEFIAKALKGKGNVVELEGIPGASAARDRGKGFDEAIAKYPDIKIVAKQAADFDRSKGLSVMENILQAQPKIDAVFAQNDEMALGAIKAIEAANRQGIIVVGFDGTEDALKAIKEGKMAATIAQQPALMGSLGVEMADKYLK
notes: Fusion of 8XHis, tagRFP, TEV site and RPtag(large)
Turning to B1, the binding result in assay [1] is “no binding (tested: 1 µM (25 mL applied))”; in assay [2] it was “binds”.
Consider PAELKLITK (modifications not checked) [RPtag(small) Nd8, Cd4], for which the dissociation constant Kd in assay [3] amounted to 0.066 nM; in [4] it was 14 nM; in [5], 160 nM; in assay [6] it was 180 nM; in [7], 740 nM; in assay [8] it was 240 nM. For the same molecule, the dissociation constant Kd in assay [9] is 733 nM; in assay [10], 0.15 nM; in [11] it was 16 nM; in assay [12] it was 22 nM; in assay [13] it was 14 nM; in assay [14], 42 nM. The equilibrium dissociation constant (Kd) in [15] stood at 27 nM; in [16] it was 4600 nM; in [17] it was 140 nM; in assay [19] it was 42 nM; in [20] it was 45 nM; in [21], 2.8 nM. Also, the Kd in [22] came to 33 nM; in assay [25], 34 nM. Further, the fold increase of affinity with kosmotropic salts (NaCl, KCl) in [18] is greater than 100 fold. Further, the resin binding capacity in assay [23] was determined as 200 nmol/mL. This molecule also displayed an off-rate (koff) in assay [24] greater than 0.0333 s⁻¹.
With RhodamineB-GEKIPNFIPAELKLITKENVQGS (also: N-terminal label: Rhodamine B / Rhodamine 6B, also called RP-small peptide) [RP-Tag Small (Sequence 3: SEQ ID NO:13 with a glycine serine tail)], the binding result with Bovine Serum Albumin was “no binding”.

B2: Nterminally tagged NativeRPtag(small)_tagRFP (other)
chain: MGSSGEKIPNFIPAELKLITKENVQGSENLYFQGGSMVSKGEELIKENMHMKLYMEGTVNNHHFKCTSEGEGKPYEGTQTMRIKVVEGGPLPFAFDILATSFMYGSRTFINHTQGIPDFFKQSFPEGFTWERVTTYEDGGVLTATQDTSLQDGCLIYNVKIRGVNFPSNGPVMQKKTLGWEANTEMLYPADGGLEGRSDMALKLVGGGHLICNFKTTYRSKKPAKNLKMPGVYYVDHRLERIKEADKETYVEQHEVAVARYCDLPSKLGHKLNGSSGHHHHHHHH
notes: Fusion of RPtag(small), TEV site, tagRFP and 8XHis
Regarding B2, the binding result in [26] is “binds”; in assay [27], “no binding (tested: 1 µM (25 mL applied))”.

B3: Cterminally_tagged_NativeRPtag(small)_tagRFP (other)
chain: MGSSHHHHHHHHGSMVSKGEELIKENMHMKLYMEGTVNNHHFKCTSEGEGKPYEGTQTMRIKVVEGGPLPFAFDILATSFMYGSRTFINHTQGIPDFFKQSFPEGFTWERVTTYEDGGVLTATQDTSLQDGCLIYNVKIRGVNFPSNGPVMQKKTLGWEANTEMLYPADGGLEGRSDMALKLVGGGHLICNFKTTYRSKKPAKNLKMPGVYYVDHRLERIKEADKETYVEQHEVAVARYCDLPSKLGHKLNGSSGENLYFQGGSGEKIPNFIPAELKLITKENVQGS
notes: Fusion of 8XHis, tagRFP, TEV site and RPtag(small)
Take B3: the binding result in assay [26] is on record as “binds”; in [27] it was “no binding (tested: 1 µM (25 mL applied))”.
